Source: PMC3775154

How the values were obtained:
Experiment in all cases: SPR
[1] = molecular target: recombinant human FcRn (human) (UniProt P55899)
[2] = molecular target: recombinant human FcγRIIIa F158 (human) (UniProt P08637)
[3] = molecular target: recombinant human FcγRIIIa V158 (human)
[4] = molecular target: recombinant human FcγRIIIb (human) (UniProt O75015)
[5] = molecular target: recombinant human FcγRIIb (human) (UniProt P31994)
[6] = molecular target: recombinant human FcγRIa (human) (UniProt P12314)
Sequence of UniProt P12314 (P12314 16-374): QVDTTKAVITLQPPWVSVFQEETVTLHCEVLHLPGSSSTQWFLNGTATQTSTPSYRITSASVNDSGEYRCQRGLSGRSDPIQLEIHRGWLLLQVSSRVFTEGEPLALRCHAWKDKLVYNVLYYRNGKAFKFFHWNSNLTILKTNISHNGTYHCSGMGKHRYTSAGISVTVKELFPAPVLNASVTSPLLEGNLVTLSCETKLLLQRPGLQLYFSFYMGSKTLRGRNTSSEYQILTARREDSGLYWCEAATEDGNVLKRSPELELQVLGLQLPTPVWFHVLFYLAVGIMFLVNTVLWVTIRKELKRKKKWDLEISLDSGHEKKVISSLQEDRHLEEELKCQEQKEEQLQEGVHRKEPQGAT

Sequence of UniProt O75015 (O75015 17-200): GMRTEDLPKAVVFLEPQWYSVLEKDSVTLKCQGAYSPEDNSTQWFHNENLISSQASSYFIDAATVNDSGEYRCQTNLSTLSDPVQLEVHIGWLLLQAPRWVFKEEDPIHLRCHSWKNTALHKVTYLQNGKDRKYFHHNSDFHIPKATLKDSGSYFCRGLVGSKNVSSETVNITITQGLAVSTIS
Sequence of recombinant human FcγRIIIa V158 (human) (P08637 17-208): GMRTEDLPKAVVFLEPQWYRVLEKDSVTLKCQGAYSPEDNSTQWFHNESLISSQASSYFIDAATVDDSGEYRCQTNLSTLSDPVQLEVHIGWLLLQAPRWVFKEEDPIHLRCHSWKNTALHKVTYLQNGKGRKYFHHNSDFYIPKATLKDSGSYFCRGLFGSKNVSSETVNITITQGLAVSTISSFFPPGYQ
Sequence of UniProt P55899 (P55899 24-297): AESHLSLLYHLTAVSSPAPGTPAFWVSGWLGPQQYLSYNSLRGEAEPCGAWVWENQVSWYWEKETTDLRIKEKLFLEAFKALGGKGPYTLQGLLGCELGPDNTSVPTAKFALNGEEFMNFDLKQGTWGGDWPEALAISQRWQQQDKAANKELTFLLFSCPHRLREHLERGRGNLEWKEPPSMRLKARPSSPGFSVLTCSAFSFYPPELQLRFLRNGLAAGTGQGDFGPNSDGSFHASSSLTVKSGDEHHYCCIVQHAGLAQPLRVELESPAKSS
Sequence of UniProt P31994 (P31994 43-310): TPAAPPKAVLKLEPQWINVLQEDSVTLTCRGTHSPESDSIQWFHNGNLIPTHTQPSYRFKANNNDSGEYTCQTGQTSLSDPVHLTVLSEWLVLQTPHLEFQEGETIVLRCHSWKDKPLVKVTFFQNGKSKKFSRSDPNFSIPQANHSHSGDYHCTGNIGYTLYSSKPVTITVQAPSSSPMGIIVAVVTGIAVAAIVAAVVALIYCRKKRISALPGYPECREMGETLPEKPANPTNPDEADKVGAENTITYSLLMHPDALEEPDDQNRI

| Kd [1] [nM] | Kd [2] [µM] | Kd [3] [µM] | Kd [4] [µM] | Kd [5] [µM] | Kd [6] [nM] | Substance |
| --- | --- | --- | --- | --- | --- | --- |
| 550 to 580 | 7.4 to 10.3 | 3.5 to 4.9 | 9.2 to 11.7 | 11.4 to 12.8 | 10.4 to 11.8 | originator rituximab (antibody) |
| 540 to 580 | 8.5 to 10.9 | 4.2 to 5 | 9.9 to 12.4 | 11 to 12.7 | 10.9 to 12.4 | proposed biosimilar rituximab GP2013 (antibody) |
